Bridges are numbered along the chain shown (N, C = ends). Primed or numbered codes have the meaning given here. [ ]: non-standard residue; d: D form. A8″‑42 = template L-Pro residue whose 4-amino group is acylated with CH3-(OCH2CH2)2-OCH2-CO (2-[2-(2-methoxyethoxy)ethoxy]acetyl), per the notes; 2Nal = N[C@@H](Cc1ccc2ccccc2c1)C(=O)O; Cit = NC(=O)NCCC[C@H](N)C(=O)O
These binders were tested against human CXCR4 (human, UniProt P61073 1-352) (assay: cell-based or functional assay).
Chain of human CXCR4 (P61073 whole entry): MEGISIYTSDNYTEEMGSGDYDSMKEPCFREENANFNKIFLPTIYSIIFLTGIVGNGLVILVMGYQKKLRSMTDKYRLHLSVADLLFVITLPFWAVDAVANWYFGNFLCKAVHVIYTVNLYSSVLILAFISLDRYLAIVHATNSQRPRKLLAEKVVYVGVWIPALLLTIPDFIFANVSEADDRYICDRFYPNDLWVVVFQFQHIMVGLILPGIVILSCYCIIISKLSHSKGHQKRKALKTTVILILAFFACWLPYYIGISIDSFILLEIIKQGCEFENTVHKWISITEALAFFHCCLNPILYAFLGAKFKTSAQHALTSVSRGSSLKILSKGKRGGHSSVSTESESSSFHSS

Row | Binder | IC50 (nM) Ca2+ assay (method 2) | IC50 (nM) Ca2+ assay (method 1)
1 | cyclo(YR[Cit]CRG[dP]RRYC[Cit]YK[dP]P) (disulfide 4-11; SMILES N=C(N)NCCC[C@@H]1NC(=O)[C@@H]2CSSC[C@H](NC(=O)[C@H](Cc3ccc(O)cc3)NC(=O)[C@H](CCCNC(=N)N)NC(=O)[C@H](CCCNC(=N)N)NC(=O)[C@H]3CCCN3C(=O)CNC1=O)C(=O)N[C@@H](CCCNC(N)=O)C(=O)N[C@@H](Cc1ccc(O)cc1)C(=O)N[C@@H](CCCCN)C(=O)N1CCC[C@@H]1C(=O)N1CCC[C@H]1C(=O)N[C@@H](Cc1ccc(O)cc1)C(=O)N[C@@H](CCCNC(=N)N)C(=O)N[C@@H](CCCNC(N)=O)C(=O)N2) [Example 113] | 0.62 nM | –
2 | cyclo(YR[Cit]CRG[dP]RRWCY[Cit]K[dP][A8″‑42]) (disulfide 4-11) [Example 116] | 14.5 nM | –
3 | cyclo(YR[Cit]CRG[dP]RR[2Nal]CYQK[dP]P) (disulfide 4-11; SMILES N=C(N)NCCC[C@@H]1NC(=O)[C@@H]2CSSC[C@H](NC(=O)[C@H](Cc3ccc4ccccc4c3)NC(=O)[C@H](CCCNC(=N)N)NC(=O)[C@H](CCCNC(=N)N)NC(=O)[C@H]3CCCN3C(=O)CNC1=O)C(=O)N[C@@H](Cc1ccc(O)cc1)C(=O)N[C@@H](CCC(N)=O)C(=O)N[C@@H](CCCCN)C(=O)N1CCC[C@@H]1C(=O)N1CCC[C@H]1C(=O)N[C@@H](Cc1ccc(O)cc1)C(=O)N[C@@H](CCCNC(=N)N)C(=O)N[C@@H](CCCNC(N)=O)C(=O)N2) [Example 115] | 2.7 nM | –
4 | cyclo(YR[Cit]FRVPRR[2Nal]VY[Cit]K[dP]P) (SMILES CC(C)[C@@H]1NC(=O)[C@H](Cc2ccc3ccccc3c2)NC(=O)[C@H](CCCNC(=N)N)NC(=O)[C@H](CCCNC(=N)N)NC(=O)[C@@H]2CCCN2C(=O)[C@H](C(C)C)NC(=O)[C@H](CCCNC(=N)N)NC(=O)[C@H](Cc2ccccc2)NC(=O)[C@H](CCCNC(N)=O)NC(=O)[C@H](CCCNC(=N)N)NC(=O)[C@H](Cc2ccc(O)cc2)NC(=O)[C@@H]2CCCN2C(=O)[C@H]2CCCN2C(=O)[C@H](CCCCN)NC(=O)[C@H](CCCNC(N)=O)NC(=O)[C@H](Cc2ccc(O)cc2)NC1=O) [Example 22] | – | 300 nM
5 | cyclo(GR[Cit]CRG[dP]RR[2Nal]CY[Cit]K[dP]P) (disulfide 4-11; SMILES N=C(N)NCCC[C@@H]1NC(=O)CNC(=O)[C@@H]2CCCN2C(=O)[C@H]2CCCN2C(=O)[C@H](CCCCN)NC(=O)[C@H](CCCNC(N)=O)NC(=O)[C@H](Cc2ccc(O)cc2)NC(=O)[C@@H]2CSSC[C@H](NC(=O)[C@H](CCCNC(N)=O)NC1=O)C(=O)N[C@@H](CCCNC(=N)N)C(=O)NCC(=O)N1CCC[C@@H]1C(=O)N[C@@H](CCCNC(=N)N)C(=O)N[C@@H](CCCNC(=N)N)C(=O)N[C@@H](Cc1ccc3ccccc3c1)C(=O)N2) [Example 114] | 1.3 nM | –
6 | cyclo(YR[Cit]CRG[dP]RRYCY[Cit]K[dP]P) (disulfide 4-11; SMILES N=C(N)NCCC[C@@H]1NC(=O)[C@@H]2CSSC[C@H](NC(=O)[C@H](Cc3ccc(O)cc3)NC(=O)[C@H](CCCNC(=N)N)NC(=O)[C@H](CCCNC(=N)N)NC(=O)[C@H]3CCCN3C(=O)CNC1=O)C(=O)N[C@@H](Cc1ccc(O)cc1)C(=O)N[C@@H](CCCNC(N)=O)C(=O)N[C@@H](CCCCN)C(=O)N1CCC[C@@H]1C(=O)N1CCC[C@H]1C(=O)N[C@@H](Cc1ccc(O)cc1)C(=O)N[C@@H](CCCNC(=N)N)C(=O)N[C@@H](CCCNC(N)=O)C(=O)N2) [Example 112] | 7.8 nM | –

Source: patent US20150087577A1 (POLYPHOR, published 2015)
